According to US20030148383A1, “Methods for identifying proteins with N-terminal N-myristoylation” (Boehringer Ingelheim International GmbH, priority 2001, published 2003):
Where two headings read alike, the source gives them in different places.

How the values were obtained:
[1] = biological target: T1, Myristoyl-CoA:protein N-myristoyltransferase from Saccharomyces cerevisiae (Saccharomyces cerevisiae, UniProt P14743); conditions: cited from earlier work; for Km: octapeptide substrate
T1 sequence (P14743 1-455): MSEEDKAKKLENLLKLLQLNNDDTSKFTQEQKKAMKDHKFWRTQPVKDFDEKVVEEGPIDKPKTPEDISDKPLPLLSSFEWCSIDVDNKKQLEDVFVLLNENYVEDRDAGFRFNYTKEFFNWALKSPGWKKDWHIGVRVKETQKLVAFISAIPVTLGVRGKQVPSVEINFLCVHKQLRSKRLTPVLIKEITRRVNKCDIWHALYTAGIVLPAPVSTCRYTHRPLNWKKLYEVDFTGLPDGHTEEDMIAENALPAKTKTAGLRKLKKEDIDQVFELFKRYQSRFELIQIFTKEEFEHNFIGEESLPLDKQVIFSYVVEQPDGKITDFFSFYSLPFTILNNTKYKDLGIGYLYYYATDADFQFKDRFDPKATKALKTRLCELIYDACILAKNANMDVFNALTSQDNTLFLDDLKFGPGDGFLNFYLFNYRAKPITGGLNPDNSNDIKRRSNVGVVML

[2] = biological target: T1, Myristoyl-CoA:protein N-myristoyltransferase from Saccharomyces cerevisiae; assay: kinetic measurements of substrate specificity of yeast NMT with octapeptides; type: biochemical; conditions: ratio of the Km, Rocque et al. 1993 data
Excerpt: The enzyme Myristoyl-CoA:protein N-myristoyltransferase from Saccharomyces cerevisiae has been subject to extensive kinetic measurements to examine its substrate specificity (Towler, D. A., et al., Annu. Rev. Biochem. 57:69-99 (1988)). […] However, the relation of the affinities, certifying which substrates are binding better than others, should remain constant.

[3] = earlier publication, Towler et al. 1988

Sequence | Km ([1]; Rocque et al. 1993) [µM] | Km [1, 3] [µM] | higher affinity (lower Km) than GSSKSKPK [2] [fold] | ability to become myristoylated ([1]; mutation of octapeptide GNAAAARR to GPAAAARR, Towler et al. 1988)
GSSKSKPK [octapeptide substrate of yeast NMT] | 105 | 40 | – | –
GNAAAARR [octapeptide substrate of yeast NMT, derived from cAMP-dependent protein kinase] | 31 | 60 | 3 | –
GPAAAARR [octapeptide, mutation of […] with proline on position 2] | – | – | – | loss of the ability to become myristoylated
